Assay [1] addresses T1, cynomolgus monkey FcγRIIIaS extracellular domain with C-terminal His-tag (cynomolgus monkey, UniProt Q8SPW2 21-206 at identity 1.00)).
T1 construct: also called cyno FcgRIIIaS; cynoFcγRIIIaS
T1 chain: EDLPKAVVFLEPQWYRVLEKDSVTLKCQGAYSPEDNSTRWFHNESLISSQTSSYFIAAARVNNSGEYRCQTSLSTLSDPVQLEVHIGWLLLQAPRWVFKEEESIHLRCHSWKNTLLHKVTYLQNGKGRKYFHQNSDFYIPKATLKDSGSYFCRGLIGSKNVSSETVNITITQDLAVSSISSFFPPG
The assay can be described thus: SPR, antibody captured, FcγR analyte. On the technique in general: In SPR one partner is held on a chip, and binding of the other changes the refractive index at the surface.

Assay [2] concerns the target T1, cynomolgus monkey FcγRIIIaS …. The assay can be described thus: SPR, KD(SG1)/KD(variant). The procedure: (§1) The kinetic analysis of interactions between these antibodies and FcγR was carried out using BIACORE® T200 or BIACORE® 4000 (GE Healthcare). HBS-EP+ (GE Healthcare) was used as the running buffer, and the measurement temperature was set to 25° C. […] After the measurement, the antibody captured on the chip was washed off by allowing reaction with 10 mM glycine-HCl, pH1.5 and 25 mM NaOH so that the chip was regenerated and used repeatedly. The sensorgrams obtained as measurement results were analyzed by the 1:1 Langmuir binding model using the BIACORE® Evaluation Software to calculate the binding rate constant ka (L/mol/s) and dissociation rate constant kd (1/s), and the dissociation constant KD (mol/L) was calculated from these values. […] Regarding such interactions, KD values were calculated using the following 1:1 binding model described in BIACORE® T100 Software Handbook BR1006-48 Edition AE.

The target of assay [3] is T2, cynomolgus monkey FcγRIIa2 extracellular domain with C-terminal His-tag (cynomolgus monkey).
T2 construct: also called cyno FcgRIIa2; cynoFcγRIIa2
T2 chain: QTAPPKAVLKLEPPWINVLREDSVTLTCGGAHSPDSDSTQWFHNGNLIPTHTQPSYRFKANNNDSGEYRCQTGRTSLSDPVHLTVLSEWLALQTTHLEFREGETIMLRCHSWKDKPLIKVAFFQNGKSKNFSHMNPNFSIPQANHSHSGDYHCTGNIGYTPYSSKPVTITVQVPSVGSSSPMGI
The assay can be described thus: SPR, KD(SG1)/KD(variant). The procedure:
as §1

Assay [4] concerns the target T3, human FcγRIIIaV extracellular domain with C-terminal His-tag (human, UniProt P08637 17-208).
T3 construct: also called human FcgRIIIaV
As to the kind of experiment: SPR, KD(SG1)/KD(variant). The procedure: as §1

Assay [5] addresses T4, cynomolgus monkey FcγRIIa2 extracellular domain, His-tagged (cynomolgus monkey).
T4 construct: also called cyno FcγRIIa2; cynoFcgRIIa2; not shown: C-terminal His-tag
T4 chain: T2 chain
The assay can be described thus: SPR Biacore, antibody captured, FcgR analyte.

The target of assay [6] is T5, cynomolgus monkey FcγRIIa3 extracellular domain, His-tagged (cynomolgus monkey).
T5 construct: also called cyno FcγRIIa3; cynoFcgRIIa3; not shown: C-terminal His-tag
T5 chain: T2 chain with K127I, N130K, H133P, Q142R
The assay can be described thus: SPR Biacore, antibody captured, FcgR analyte.

The target in assay [7] is T6, human FcγRIIIaV extracellular domain, C-terminal His-tag (human, UniProt P08637 17-208).
T6 construct: also called FcgRIIIaV
T6 sequence (P08637 17-208 F176V): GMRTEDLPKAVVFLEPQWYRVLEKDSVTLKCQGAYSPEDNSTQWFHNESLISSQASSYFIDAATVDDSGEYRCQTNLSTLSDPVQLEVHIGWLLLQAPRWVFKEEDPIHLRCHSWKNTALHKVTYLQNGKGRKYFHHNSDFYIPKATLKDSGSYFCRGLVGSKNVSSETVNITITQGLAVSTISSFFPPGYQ
The assay can be described thus: SPR (BIACORE), captured by anti-human kappa, FcgR analyte. The procedure: as §1
Furthermore, the substitutions used in Example 29 for improving antibody half-life and reducing binding to rheumatoid factor were introduced into human FcγRIIb-enhanced Fc variants and their affinity against human FcγRs were analyzed (Table 29).

Assay [8] deals with T7, cynomolgus monkey FcγRIIa1 extracellular domain with C-terminal His-tag (cynomolgus monkey).
T7 construct: also called cyno FcgRIIa1; cynoFcγRIIa1
T7 chain: T2 chain with T95P, A121T, K127I, S128A, N130K, N135D, Q142R
As to the kind of experiment: SPR, KD(SG1)/KD(variant). The procedure: as §1

For assay [9], the target named is T8, cynomolgus monkey FcγRIIb extracellular domain, His-tagged (cynomolgus monkey).
T8 construct: also called cyno FcγRIIb; cynoFcγRIIb; not shown: C-terminal His-tag
T8 chain: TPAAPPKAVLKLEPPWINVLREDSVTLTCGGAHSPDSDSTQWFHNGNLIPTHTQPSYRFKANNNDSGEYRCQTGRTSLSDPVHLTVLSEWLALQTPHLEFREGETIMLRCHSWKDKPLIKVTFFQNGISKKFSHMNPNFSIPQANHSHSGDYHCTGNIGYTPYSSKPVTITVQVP
As to the kind of experiment: SPR Biacore, KD(SG1)/KD(variant).

The target of assay [10] is T5, cynomolgus monkey FcγRIIa3 …. The assay can be described thus: SPR Biacore, KD(SG1)/KD(variant).
The target in assay [11] is T9, cynomolgus monkey FcγRIIa1 extracellular domain, His-tagged (cynomolgus monkey).
T9 construct: also called cyno FcγRIIa1; cynoFcgRIIa1; not shown: C-terminal His-tag
T9 chain: T2 chain with T95P, A121T, K127I, S128A, N130K, N135D, Q142R
As to the kind of experiment: SPR Biacore, KD(SG1)/KD(variant).

For assay [12], the target named is T10, human FcγRIIb extracellular domain, His-tagged (human, UniProt P31994 43-217).
T10 construct: also called FcgRIIb (human); not shown: C-terminal His-tag
T10 sequence: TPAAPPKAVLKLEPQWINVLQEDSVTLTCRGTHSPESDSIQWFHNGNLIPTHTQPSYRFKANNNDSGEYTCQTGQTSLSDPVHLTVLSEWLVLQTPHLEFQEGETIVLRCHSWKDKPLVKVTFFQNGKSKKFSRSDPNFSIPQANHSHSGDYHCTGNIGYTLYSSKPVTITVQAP
The assay can be described thus: SPR Biacore, antibody captured, FcgR analyte.

In assay [13] the target is T9, cynomolgus monkey FcγRIIa1 …. The assay can be described thus: SPR Biacore, antibody captured, FcgR analyte.
The target in another assay is T11, Human latent myostatin (human, UniProt O14793 25-266; O14793 267-375).
T11 construct: Biotinylated in the ELISAs; also called human myostatin latent form
T11 sequence 1: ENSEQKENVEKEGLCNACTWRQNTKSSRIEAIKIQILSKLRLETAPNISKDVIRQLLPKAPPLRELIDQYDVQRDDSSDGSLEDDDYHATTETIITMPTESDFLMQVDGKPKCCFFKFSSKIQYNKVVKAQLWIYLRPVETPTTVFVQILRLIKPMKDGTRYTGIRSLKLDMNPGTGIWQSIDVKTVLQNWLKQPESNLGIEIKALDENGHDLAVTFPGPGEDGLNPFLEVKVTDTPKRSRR
T11 sequence 2: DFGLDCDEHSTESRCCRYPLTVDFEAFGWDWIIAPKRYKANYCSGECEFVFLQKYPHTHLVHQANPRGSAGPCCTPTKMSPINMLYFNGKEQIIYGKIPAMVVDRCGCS
As to the kind of experiment: Western blot with the antibody as probe on GST-tagged 100-amino-acid fragments of the human latent myostatin propeptide expressed in E. coli BL21 (lanes 1-8), GST control (lane 9) and human latent myostatin 100 ng (lane 10). The text has this: Fragments of the N-terminal propeptide coding region of human latent myostatin were cloned into a pGEX4.1 vector so as to produce GST tagged propeptide fragments of 100 amino acid each, with 80 amino acid overlap (FIG. 22A). Protein expression was induced in transformed BL21 competent cells with Overnight Express Autoinduction System (Merck Millipore) and protein was extracted using the BUGBUSTER® protein extraction reagent (Novagen).
In general terms: In western blotting, separated proteins are transferred to a membrane and probed.

Numbering of substitutions follows the chain as printed. Names and notes keep the numbering of the source.

T3 sequence (P08637 17-208 F176V): as the sequence (P08637 17-208 F176V) above

B1: MS1032LO06-MY352 (antibody, human IgG1, kappa)
heavy: QVTLKESGPVLVKPTETLTLTCTVSGIDLSHDDISWVRQAPGKGLEWVGIISYAGSTYYASWAKGRLTISKDTSKNQVVLTMTNMDPVDTATYYCARGVPAYSHGGDLWGQGTLVTVSSASTKGPSVFPLAPSSKSTSGGTAALGCLVKDYFPEPVTVSWNSGALTSGVHTFPAVLQSSGLYSLSSVVTVPSSSLGTQTYICNVNHKPSNTKVDKKVEPKSCDKTHTCPPCPAPELLNGPSVFLFPPKPKDTLMISRTPEVTCVVVDVSDEDPEVKFNWYVDGVEVHNAKTKPREEQYNSTYRVVSVLTVLHRDWLNGKEYKCKVSNKALPKPIEKTISKAKGQPREPQVYTLPPSREEMTKNQVSLTCLVKGFYPSDIAVEWESNGQPENNYKTTPPVLDSDGSFFLYSKLTVRKSRWQQGNVFSCSVMHEALHNHYTQKSLSLSP
light: DIVMTQSPATLSLSPGERATLSCTSSQSVYHANWLSWFQQKPGQPPKLLIYWASTLAYGVPSRFSGSGSGTDFTLTISSLQPEDAATYYCAGGYGGGRYAFGQGTKVEIKRTVAAPSVFIFPPSDEQLKSGTASVVCLLNNFYPREAKVQWKVDNALQSGNSQESVTEQDSKDSTYSLSSTLTLSKADYEKHKVYACEVTHQGLSSPVTKSFNRGEC
notes: MY201 with Q311R/D413R; also called M103205H795-MY352; copies: 2 + 2
In the case of B1, the Kd (as a rule, the free concentration of one partner at which half of the binding sites on the other are occupied at equilibrium, for simple one-to-one binding) in assay [1] came out at 4 µM. In addition, the “KD fold (SG1 = 1)” value in assay [2] amounted to 0.07 fold; in assay [3], 3.3 fold; in [4], 0.04 fold.

B2: M103205H795-MY064/M103202L889-SK1 (antibody, human IgG1, kappa, name in EU numbering)
heavy: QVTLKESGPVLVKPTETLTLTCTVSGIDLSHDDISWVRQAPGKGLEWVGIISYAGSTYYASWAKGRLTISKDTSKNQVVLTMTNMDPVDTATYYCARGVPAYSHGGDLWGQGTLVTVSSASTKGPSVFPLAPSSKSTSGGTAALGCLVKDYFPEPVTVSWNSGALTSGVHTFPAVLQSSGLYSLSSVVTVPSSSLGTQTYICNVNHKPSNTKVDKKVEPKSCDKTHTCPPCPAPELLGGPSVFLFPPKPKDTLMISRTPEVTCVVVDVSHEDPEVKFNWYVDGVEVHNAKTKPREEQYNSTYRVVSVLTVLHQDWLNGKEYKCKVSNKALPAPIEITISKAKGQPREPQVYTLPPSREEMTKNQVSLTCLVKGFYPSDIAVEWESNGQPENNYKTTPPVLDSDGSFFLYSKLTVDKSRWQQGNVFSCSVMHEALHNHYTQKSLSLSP
light: B1 light
notes: Substitution introduced into M103205H795-SG1; EU numbering
As to B2, the Kd in [5] is 2.6 µM; in assay [6] it was 6.9 µM.

B3: MS103240H795-TT69/M103202L1045-SK1 (antibody)
heavy: QVQLVESGGGLVQPGGSLRLSCAVSGIDLSHDDISWVRQAPGKGLEWVSIISYAGSTYYASWAKGRLTISKDTSKNQVVLTMTNMDPVDTATYYCARGVPAYSHGGDLWGQGTLVTVSSASTKGPSVFPLAPSSKSTSGGTAALGCLVKDYFPEPVTVSWNSGALTSGVHTFPAVLQSSGLYSLSSVVTVPSSSLGTQTYICNVNHKPSNTKVDKKVEPKSCDKTHTCPPCPAPELLGGDSVFLFPPKPKDVLMISRTPEVTCVVVDVSHEDPEVKFNWYVDGVEVHNAKTKPREEQYNSTYRVVSVLPVLHRDWLNGKEYKCKVSNKALPKPIEKTISKAKGQPREPQVYTLPPSREEMTKNQVSLTCLVKGFYPSDIAVEWESNGQPENNYKTTPPVLDSDGSFFLYSKLTVKKSRWQQGNVFSCSVLHEALHAHTTRKELSLSP
light: B1 light with S25T, A32E
notes: copies: 2 + 2
As to B3, in assay [7], the Kd came out at 930 µM.

B4: MS103240H795-TT90/M103202L1045-SK1 (antibody)
heavy: B3 heavy with L236Y, V266I, P345R, K415D, L430M, T438Y
light: B1 light with S25T, A32E
In [7], B4 returned a Kd of 960 µM.

B5: MS1032LO06-PK55 (antibody, human IgG1, kappa)
heavy: B1 heavy with P345R, R415D
light: B1 light
notes: MY201 with Q311R/P343R; also called MS103205H795-PK55; M103205H795-MY55
Take B5: the Kd in [1] amounted to 3.3 µM. In addition, the results for the “KD fold (SG1 = 1)” value in assay [2] and in [8] were 0.08 fold and 3.5 fold, respectively.

B6: MS103240H795-TT72/M103202L1045-SK1 (antibody)
heavy: B3 heavy with V266I, L430M, T438Y
light: B1 light with S25T, A32E
notes: copies: 2 + 2
In turn, B6 returned a Kd in assay [7] of 900 µM.

B7: M103205H795-MY066/M103202L889-SK1 (antibody, human IgG1, kappa, name in EU numbering)
heavy: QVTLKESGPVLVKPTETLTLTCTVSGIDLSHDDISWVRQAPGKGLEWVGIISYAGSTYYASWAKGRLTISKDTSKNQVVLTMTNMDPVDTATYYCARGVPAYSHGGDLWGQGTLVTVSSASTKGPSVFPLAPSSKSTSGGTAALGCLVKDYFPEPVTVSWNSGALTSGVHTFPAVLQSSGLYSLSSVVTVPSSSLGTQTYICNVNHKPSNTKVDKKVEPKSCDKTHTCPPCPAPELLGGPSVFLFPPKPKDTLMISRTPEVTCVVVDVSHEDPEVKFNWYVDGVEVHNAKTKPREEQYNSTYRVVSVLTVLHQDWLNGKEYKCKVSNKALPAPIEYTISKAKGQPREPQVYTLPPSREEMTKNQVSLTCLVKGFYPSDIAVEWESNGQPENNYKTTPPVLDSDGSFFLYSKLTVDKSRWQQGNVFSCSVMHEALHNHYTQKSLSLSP
light: B1 light
notes: as for B2
Turning to B7, the Kd in assay [5] is 2.6 µM; in assay [6], 6.7 µM.

B8: M103205H795-MY010/M103202L889-SK1 (antibody, human IgG1, kappa, name in EU numbering)
heavy: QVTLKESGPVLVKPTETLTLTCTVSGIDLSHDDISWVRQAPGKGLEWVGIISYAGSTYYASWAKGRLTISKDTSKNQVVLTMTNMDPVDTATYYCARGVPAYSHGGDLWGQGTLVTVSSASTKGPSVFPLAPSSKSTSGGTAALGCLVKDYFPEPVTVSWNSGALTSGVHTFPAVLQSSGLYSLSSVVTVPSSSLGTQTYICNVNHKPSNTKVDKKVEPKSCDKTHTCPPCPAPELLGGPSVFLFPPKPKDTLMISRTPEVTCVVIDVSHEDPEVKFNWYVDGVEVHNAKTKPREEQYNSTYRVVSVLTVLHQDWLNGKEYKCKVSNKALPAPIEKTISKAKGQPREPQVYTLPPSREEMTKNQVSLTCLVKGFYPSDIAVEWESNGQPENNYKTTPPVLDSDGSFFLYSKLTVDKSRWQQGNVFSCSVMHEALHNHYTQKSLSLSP
light: B1 light
notes: as for B2
Take B8: the “KD fold (SG1 = 1)” value was found to be 0.9 fold in assay [9], 1.1 fold in [10] and 0.9 fold in assay [11]. For the same molecule, the equilibrium dissociation constant (Kd) was determined as 5.1 µM in assay [12], 16 µM in [6] and 3.5 µM in assay [13].

B9: MST1538 (antibody, human IgG1, kappa, V domains shown)
VH: QSLEESGGGLVKPGGTLTLTCKASGIDFSSYYYMCWVRQAPGKGLEWIACIYAGISGSTYYASWAKGRFTISKTSSTTVTLQMTSLTAADTATYFCARDPYHFDYGSLWGPGTLVTVSS
VL: ALVMTQTPASVSAAVGGTVTINCQASQSVYGGNELSWYQQEPGQPPKLLIYSASKLASGVPSRFKGSGSGTQFTLTISGVQCDDAAAYYCAGYRTYSDDDNAFGGGTKVEIKR
notes: Constant regions as for MST1504
Turning to B9, the binding result with Human latent myostatin is recorded as “binds”.

B10: MST1572 (antibody, human IgG1, kappa, V domains shown)
VH: QSVEESGGRLVTPGTPLTLTCTVSGFSLSSYAMSWVRQAPGKGLEWIGIIYGVGSTYYASWAKGRFTISKTSTTVDLKIASPTTEDTATYFCARDDYGWGYTNLWGPGTLVTVSS
VL: QVLTQTPSSVSAAVGGTVTINCQSSQSVYNNNYLAWFQQKPGQPPKLLIYDASKLASGVPSRFKGSGSGTQFTLTISGVQCDDAATYYCQGSYYSSGWYRAFGGGTKVEIKR
notes: as for B9
Take B10: in the assay with Human latent myostatin, the binding result is reported as “binds”.

Source of the values: patent US20250076311A1 (Chugai, published 2025).
